Experiments:
[1] = biological target: soluble biotinylated cognate peptide-MHC of the DMF5 TCR; experiment: BLI; Octet RED96; biotinylated pMHC (5 µg/mL) loaded on streptavidin tips; TCR in twofold serial dilutions from 200 nM, 900 s association, 600 s dissociation; PBS with kinetic buffer; 1:1 binding model
[2] = biological target: soluble biotinylated cognate peptide-MHC of the A6 TCR; experiment: as above

Substance	Kd [1]	koff [1]	Kd [2]	koff [2]
wild-type DMF5 TCR (soluble α/β heterodimer)	31.6 nM	7.4e-05 s⁻¹		
wild-type high-affinity A6 TCR (soluble α/β heterodimer)			8.3 nM	0.000416 s⁻¹
